Data on three molecules can be found in US20190134214A1, “GLP-1 Receptor Ligand Moiety Conjugated Oligonucleotides and Uses Thereof” (published 2019).

Square brackets hold non-standard residues; d marks the D form. Ends that are not written are not given here. Aib = CC(C)(N)C(=O)O

Assay [1] has as its target FLAG-tagged GLP1R, stably expressed in HEK 293 cells (LVX-GLP1R cells).
For assay [2], the target named is GLP-1 receptor of mouse primary islets of Langerhans (mouse, UniProt O35659). Description: cell-based or functional assay.
Assay [3] addresses human GLP-1 receptor (hGLP1R), stably expressed in HEK293 cells (hGLP1R-HEK) (human, UniProt P43220). Put plainly: cell-based or functional assay.
Assay [4] addresses FLAG-tagged GLP1R, stably expressed in HEK 293 cells (LVX-GLP1R cells). This is another data set of the same source.

B1: 5'-GLP-1 peptide conjugated ASO targeted to MALAT1 (ION 962963) (peptide)
peptide: H[Aib]EGTFTSDVSSYLEEQAAKEFIAWLVKGGPSSGAPPPSC-NH2
modifications: not fully specified (residue 40); also: Cys40 disulfide to 3-mercaptopropionate linker
In the case of B1, in assay [1], the IC50 of MALAT-1 expression in GLP1R HEK cells worked out at 350 nM.

B2: GLP-1 peptide conjugated ASO targeted to FOXO1 (ION 913193) (peptide)
peptide: H[Aib]EGTFTSDVSSYLEEQAAKEFIAWLVKGGPSSGAPPPSC-NH2
modifications: not fully specified (residue 40); also: Cys40 disulfide via 3-mercaptopropionate linker to 5'-hexylamino ASO ION 913192
For the molecule B2, in assay [2], the “Islet FOXO1 mRNA levels relative to control (RPLP0), percent of untreated, 96 hours, 1 µM” value was found to be 25%.

B3: GLP-1 conjugated MALAT1 ASO (ISIS 816385) (peptide)
peptide: H[Aib]EGTFTSDVSSYLEEQAAKEFIAWLVKGGPSSGAPPPSC-NH2
modifications: not fully specified (residue 40); also: Cys40 disulfide via 3-mercaptopropionate linker to 5'-hexylamino ASO ISIS 786434
In the case of B3, the IC50 of MALAT-1 expression in GLP1R HEK cells in assay [1] was found to be 260 nM. Besides, in assay [3], the “IC50 of inhibition of MALAT1 mRNA in hGLP1R-HEK cells” value was 20 nM. The molecule also came in with an IC50 of peptide-conjugated ASO activity (MALAT1 RNA) in LVX-GLP1R cells in assay [4] of 350 nM.
